This is an account of results in patent publication US20260258124A1 (CIMEIO THERAPEUTICS, published 2026).

Changes are numbered by the printed parent chain.

Assay [1] addresses T1, CD117 on wild-type cells (TF-1 cells, HSPCs, HSCs) (human, UniProt P10721 26-976). Briefly: cell-based or functional assay.
Assay [2] addresses T1, CD117 on wild-type cells (TF-1 cells, …). Briefly: cell-based or functional assay. The source holds these as a separate data set.
The target in assay [3] is T2, human recombinant CD117 (c-Kit) from Sino Biological (Catalog No. 11996-H08H) (human, UniProt P10721 26-524).
T2 construct: also called soluble antigen
T2 sequence (P10721 26-524 limits assumed): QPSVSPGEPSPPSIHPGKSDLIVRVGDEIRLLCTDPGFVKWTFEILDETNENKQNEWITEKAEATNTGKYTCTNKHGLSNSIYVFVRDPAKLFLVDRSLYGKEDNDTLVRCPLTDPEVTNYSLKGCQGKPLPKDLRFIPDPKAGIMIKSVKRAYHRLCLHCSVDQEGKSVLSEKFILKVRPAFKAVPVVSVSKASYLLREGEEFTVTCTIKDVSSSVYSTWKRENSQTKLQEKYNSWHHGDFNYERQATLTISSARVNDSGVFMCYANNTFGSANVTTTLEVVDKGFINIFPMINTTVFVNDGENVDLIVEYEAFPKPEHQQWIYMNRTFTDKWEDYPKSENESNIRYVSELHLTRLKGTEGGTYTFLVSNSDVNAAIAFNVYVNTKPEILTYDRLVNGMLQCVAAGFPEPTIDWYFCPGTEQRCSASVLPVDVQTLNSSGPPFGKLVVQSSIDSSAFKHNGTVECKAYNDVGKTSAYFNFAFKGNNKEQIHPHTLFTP
Briefly: BLI Octet, set-up as in Example 2. The protocol: (§1) In the main experiment kinetic assays were performed by first capturing IgG using anti-human Fc biosensors. The mAb capture biosensors were then submerged in wells containing different concentrations of antigen (association stage) followed by a dissociation step in running buffer. To allow for double reference correction, IgG-captured sensors were dipped into wells containing only buffer and blank sensors were also dipped into wells containing the antigen. This referencing provided a means of compensating for both the natural dissociation of the capture IgG and non-specific binding of the antigen to the sensor surface. Steps were performed at 25° C. at a constant shaking of 1000 rpm. New sensors were used for each sample. Dissociation rate constants (Kd) were calculated using the ForteBio Data Analysis software. All consumables used were those recommended by ForteBio.
(§2) All samples were diluted in freshly prepared running buffer. Antibody variants were immobilized onto the surface of a series of biosensors using the capture methods described. Antigen was passed over the surface to generate a binding response. Binding data for the IgG:antigen interactions were collected at 25° C. on the biosensors. A dilution series of the antigen was used in the association step, in order to fit results globally and get the best values for ka, kd, and KD. The response data for the binding of antigen to the surface immobilized IgG were fitted to a 1:1 binding model. HC0 LC0 refers to murine SR-1.
(BLI is a label-free optical method that tracks binding on a fibre tip over time.)

In assay [4] the target is T2, human recombinant CD117 (c-Kit) from …. The experiment in a line: BLI Octet, IgG on anti-human Fc sensor, soluble CD117, 1:1 fit. The protocol: IgG antibodies were immobilized on biosensors using suitable capture surfaces and binding of soluble antigen to immobilized antibodies was monitored by BLI (Octet). The resulting sensorgrams were analyzed using the supplied software (Fortebio). As antigen human recombinant CD117 (c-Kit) from Sino Biological was used (Catalog No. 11996-H08H, Lot #LC14SE0812). As a pre-experiment a series of experiments was performed to optimize assay parameters. The following parameters were selected:
as §1, §2

T1 sequence (P10721 26-976 limits assumed): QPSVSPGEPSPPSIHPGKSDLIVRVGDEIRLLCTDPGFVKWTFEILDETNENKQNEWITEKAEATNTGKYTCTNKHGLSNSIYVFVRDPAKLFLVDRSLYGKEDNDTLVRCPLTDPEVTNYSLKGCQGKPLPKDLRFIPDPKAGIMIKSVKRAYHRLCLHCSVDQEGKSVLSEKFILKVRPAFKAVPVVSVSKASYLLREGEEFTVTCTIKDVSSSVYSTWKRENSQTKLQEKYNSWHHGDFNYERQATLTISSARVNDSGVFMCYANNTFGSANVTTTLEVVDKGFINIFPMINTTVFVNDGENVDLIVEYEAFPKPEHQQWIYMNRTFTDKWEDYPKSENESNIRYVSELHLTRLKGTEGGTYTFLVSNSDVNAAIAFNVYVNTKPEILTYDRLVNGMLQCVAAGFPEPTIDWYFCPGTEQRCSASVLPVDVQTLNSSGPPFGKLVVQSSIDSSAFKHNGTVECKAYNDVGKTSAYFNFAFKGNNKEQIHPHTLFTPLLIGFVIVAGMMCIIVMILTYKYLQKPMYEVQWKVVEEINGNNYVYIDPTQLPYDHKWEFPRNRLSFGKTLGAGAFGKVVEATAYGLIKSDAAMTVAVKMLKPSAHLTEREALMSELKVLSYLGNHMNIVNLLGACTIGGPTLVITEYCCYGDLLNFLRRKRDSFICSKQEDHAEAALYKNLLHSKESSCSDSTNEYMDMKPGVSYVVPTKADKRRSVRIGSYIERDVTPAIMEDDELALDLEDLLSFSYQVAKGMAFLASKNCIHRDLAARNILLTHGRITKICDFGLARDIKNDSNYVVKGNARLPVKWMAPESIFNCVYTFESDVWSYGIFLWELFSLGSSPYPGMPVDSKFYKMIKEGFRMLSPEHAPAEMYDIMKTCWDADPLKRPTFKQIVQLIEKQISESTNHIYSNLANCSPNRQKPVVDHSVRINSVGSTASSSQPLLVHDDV

B1: FSI-174 (antibody, human IgG1, V domains shown)
VH: QVQLVQSGAEVKKPGASVKVSCKASGYTFTSYNMHWVRQAPGQGLEWMGVIYSGNGDTSYAQKFQGRVTITADKSTSTAYMELSSLRSEDTAVYYCARERDTRFGNWGQGTLVTVSS
VL: DIVMTQSPLSLPVTPGEPASISCRASESVDIYGQSFMHWYLQKPGQSPQLLIYLASNLESGVPDRFSGSGSGTDFTLKISRVEAEDVGVYYCQQNNEDPYTFGGGTKVEIK
Turning to B1, in assay [1], the “IC50, inhibition of SCF-dependent proliferation of CD34-positive HSPCs (CellTiter-Glo)” value is 0.0253 µg/mL. In addition, in assay [2], the “IC50, inhibition of SCF-dependent proliferation of TF-1 cells (CellTiter-Glo), Average” value (from here on “IC50, inhibition … Average”) is 0.0473 µg/mL; the “IC50, inhibition of SCF-dependent proliferation of TF-1 cells (CellTiter-Glo), Experiment #1” value (from here on “IC50, inhibition … Experiment #1”) is 0.0387 µg/mL; the “IC50, inhibition of SCF-dependent proliferation of TF-1 cells (CellTiter-Glo), Experiment #2” value (“IC50, inhibition … Experiment #2” below) was 0.056 µg/mL.

B2: AMG191 (antibody, human IgG1, V domains shown)
VH: B1 VH with A61N, Q65K
VL: DIVMTQSPDSLAVSLGERATINCRASESVDIYGNSFMHWYQQKPGQPPKLLIYLASNLESGVPDRFSGSGSGTDFTLTISSLQAEDVAVYYCQQNNEDPYTFGGGTKVEIKR
B2: the “IC50, inhibition of SCF-dependent proliferation of CD34-positive HSPCs (CellTiter-Glo)” value in assay [1] is 0.0954 µg/mL. In addition, in assay [2], the “IC50, inhibition … Average” value worked out at 0.208 µg/mL; the “IC50, inhibition … Experiment #1” value stood at 0.093 µg/mL; the “IC50, inhibition … Experiment #2” value came to 0.323 µg/mL.

B3: Parrot (antibody, V domains shown)
VH: B1 VH with A61N, Q65K, I70M, A72T, K74T, S84R, R87T, E89D, S117A
VL: EIVLTQSPSSLSASVGDRVTITCRASESVDIYGKSFMHWYQQKPGKAPKLLIYLASNLESGVPSRFSGSGSGTDFTLTISSLQPEDFATYYCQQNNEDPYTFGQGTKLEIKR
notes: IgG; also called VH1/VL1.5
B3: the Kd in assay [3] came out at 3.7 nM.

B4: Dirruhorn (antibody, V domains shown)
VH: B1 VH with A61N, Q65K, I70M, A72T, K74T, S84R, R87T, E89D, S117A
VL: B3 VL with K34Y, N96K, D98E
notes: IgG; also called VH1/VL1.18; VH1/VH1.18
For the molecule B4, the Kd in assay [3] worked out at 0.56 nM.

B5: Matterhorn (antibody, V domains shown)
VH: B1 VH with A61N, Q65K, I70M, A72T, K74T, S84R, R87T, E89D, S117A
VL: B3 VL with K34S
notes: IgG; also called VH1/VL1.4; VH1/LC1.4
On to B5, for which the dissociation constant Kd in assay [3] was 0.5 nM. In assay [1], the “IC50, inhibition of SCF-dependent proliferation of CD34-positive HSPCs (CellTiter-Glo)” value stood at 0.0716 µg/mL. Besides, in assay [2], the “IC50, inhibition … Average” value worked out at 0.116 µg/mL; the “IC50, inhibition … Experiment #1” value came to 0.0648 µg/mL; the “IC50, inhibition … Experiment #2” value is 0.168 µg/mL.

B6: Lagginhorn (antibody, V domains shown)
VH: B1 VH with N55S, A61N, Q65K, I70M, A72T, K74T, S84R, R87T, E89D, S117A
VL: B3 VL with K34E, D98E
notes: IgG; also called VH1.2/VL1.17
Turning to B6, in assay [3], the Kd is 0.44 nM.

B7: Castor (antibody, V domains shown)
VH: B1 VH with A61N, Q65K, I70M, A72T, K74T, S84R, R87T, E89D, S117A
VL: B3 VL with K34N, N95E
notes: IgG; also called VH1/VL1.11
Regarding B7, the dissociation constant Kd in assay [3] came out at 2.2 nM.

B8: Finsteraarhor (antibody, V domains shown)
VH: B1 VH with A61N, Q65K, I70M, A72T, K74T, S84R, R87T, E89D, S117A
VL: B3 VL with K34N, N95R
notes: IgG; also called VH1/VL1.10; VH1/LC1.10
Turning to B8, in assay [3], the Kd came to 4 nM.

B9: Jungfrau (antibody, V domains shown)
VH: B1 VH with N55S, A61N, Q65K, I70M, A72T, K74T, S84R, R87T, E89D, S117A
VL: EIVLTQSPSSLSASVGDRVTITCRASESVDIYGNSFMHWYQQKPGKAPKLLIYLASNLESGVPSRFSGSGSGTDFTLTISSLQPEDFATYYCQQNNEDPYTFGQGTKLEIK
notes: IgG; also called VH1.2/VL1
Take B9: the equilibrium dissociation constant (Kd) in assay [3] came to 1.3 nM.

B10: Grand Combin (antibody, V domains shown)
VH: B1 VH with A61N, Q65K, I70M, A72T, K74T, S84R, R87T, E89D, S117A
VL: B3 VL with K34N, N95G
notes: IgG; also called VH1/VL1.9
Take B10: the equilibrium dissociation constant (Kd) in assay [3] came out at 1.3 nM.

B11: Ludwigshöhe (antibody, V domains shown)
VH: B1 VH with A61N, Q65K, I70M, A72T, K74T, S84R, R87T, E89D, S117A
VL: B3 VL with K34E
notes: IgG; also called VH1/VL1.7
For the molecule B11, in assay [3], the dissociation constant (Kd) worked out at 0.2 nM.

B12: Weisshorn (antibody, V domains shown)
VH: B1 VH with A61N, Q65K, I70M, A72T, K74T, S84R, R87T, E89D, S117A
VL: B3 VL with K34Q
notes: IgG; also called VH1/VL1.2; VH1/LC1.2
Turning to B12, in assay [3], the dissociation constant Kd was 0.3 nM.

B13: Zinalrithorn (antibody, V domains shown)
VH: B1 VH with A61N, Q65K, I70M, A72T, K74T, S84R, R87T, E89D, S117A
VL: B3 VL with K34N, N95H
notes: IgG; also called VH1/VL1.12
In the case of B13, the dissociation constant Kd in assay [3] is 1.3 nM.

B14: Dent Blanche (antibody, V domains shown)
VH: B1 VH with A61N, Q65K, I70M, A72T, K74T, S84R, R87T, E89D, S117A
VL: B3 VL with K34F
notes: IgG; also called VH1/VL1.6
Turning to B14, the Kd in assay [3] was 1.2 nM.

B15: Schreckhorn (antibody, V domains shown)
VH: B1 VH with A61N, Q65K, I70M, A72T, K74T, S84R, R87T, E89D, S117A
VL: B3 VL with K34Y, D98E
notes: IgG; also called VH1/VL1.16
In the case of B15, the Kd in assay [3] was determined as 0.13 nM.

B16: Breithorn (antibody, V domains shown)
VH: B1 VH with A61N, Q65K, I70M, A72T, K74T, S84R, R87T, E89D, S117A
VL: B3 VL with K34N, D98E
notes: IgG; also called VH1/VL1.15; VH1/LC1.15
Take B16: the Kd in assay [3] worked out at 0.4 nM.

B17: Weissmies (antibody, V domains shown)
VH: B1 VH with N55S, A61N, Q65K, I70M, A72T, K74T, S84R, R87T, E89D, S117A
VL: B3 VL with K34Y, D98E
notes: IgG; also called VH1.2/VL1.16
In the case of B17, the Kd in assay [3] worked out at 0.37 nM.

B18: Aletschhorn (antibody, V domains shown)
VH: B1 VH with A61N, Q65K, I70M, A72T, K74T, S84R, R87T, E89D, S117A
VL: B3 VL with K34N, D98P
notes: IgG; also called VH1/VL1.14
Consider B18, for which the equilibrium dissociation constant (Kd) in assay [3] is 1.4 nM.

B19: Nadelhorn (antibody, V domains shown)
VH: B1 VH with A61N, Q65K, I70M, A72T, K74T, S84R, R87T, E89D, S117A
VL: B3 VL with K34Y
notes: IgG; also called VH1/VL1.8
Take B19: the Kd in assay [3] stood at 0.2 nM.

B20: Täschhorn (antibody, V domains shown)
VH: B1 VH with A61N, Q65K, I70M, A72T, K74T, S84R, R87T, E89D, S117A
VL: B3 VL with K34R
notes: IgG; also called VH1/VL1.3
Turning to B20, the Kd in assay [3] worked out at 3.5 nM.

B21: Bellavista (antibody, V domains shown)
VH: B1 VH with N55Q, A61N, Q65K, I70M, A72T, K74T, S84R, R87T, E89D, S117A
VL: B3 VL with K34E, N96R, D98E
notes: IgG; also called VH1.4/VL1.29
Consider B21, for which, in assay [3], the dissociation constant (Kd) was 1.3 nM. Besides, the “IC50, inhibition of SCF-dependent proliferation of CD34-positive HSPCs (CellTiter-Glo)” value in assay [1] is 0.096 µg/mL. In assay [2], the “IC50, inhibition … Average” value was 0.157 µg/mL; the “IC50, inhibition … Experiment #1” value came out at 0.103 µg/mL; the “IC50, inhibition … Experiment #2” value turned out to be 0.212 µg/mL.

B22: Alphubel (antibody, V domains shown)
VH: B1 VH with A61N, Q65K, I70M, A72T, K74T, S84R, R87T, E89D, S117A
VL: B3 VL with K34N, N96K
notes: IgG; also called VH1/VL1.13
As for B22, the Kd in assay [3] came to 1.4 nM.

B23: HC5 LC5 (antibody, V domains shown)
VH: EVQLVQSGAEVKKPGESLKISCKGSGYTFTSYNMHWVRQMPGKGLEWMGVIYSGNADTSYNQKFKGQVTISADKSISTAYLQWSSLKASDTAMYYCARERDTRFGNWGQGTLVTVSA
VL: B9 VL with E1D, V3Q, L4M, S35A, N95A, D98E, Q104G
notes: IgG; also called VH5/VL5
With B23, in assay [4], the Kd turned out to be 29.4 nM, the koff was 0.0184 s⁻¹ and the kon was 626000 M⁻¹ s⁻¹.

B24: Liskamm (antibody, V domains shown)
VH: B23 VH
VL: B9 VL
notes: IgG; also called VH5/VL1; HC5 LC1
B24: in assay [4], the Kd is 1.92 nM, the off-rate constant (koff) amounted to 0.000961 s⁻¹ and the kon amounted to 500000 M⁻¹ s⁻¹.

In general, Kd refers to a measure of binding affinity in units of concentration. What is called koff is a measure of how fast the partners let go of each other. A word on the kon: it is the second-order rate constant of association.
